Tests used:
human CD73 mutant 2 = target: T1, human CD73 mutant 2 (human, UniProt P21589 27-549); assay: flow cytometry titration on HEK-293T cells transfected with CD73 mutant 2
T1 construct: Transfected in HEK-293T cells; The cell prints A1071, read as A107I
T1 chain: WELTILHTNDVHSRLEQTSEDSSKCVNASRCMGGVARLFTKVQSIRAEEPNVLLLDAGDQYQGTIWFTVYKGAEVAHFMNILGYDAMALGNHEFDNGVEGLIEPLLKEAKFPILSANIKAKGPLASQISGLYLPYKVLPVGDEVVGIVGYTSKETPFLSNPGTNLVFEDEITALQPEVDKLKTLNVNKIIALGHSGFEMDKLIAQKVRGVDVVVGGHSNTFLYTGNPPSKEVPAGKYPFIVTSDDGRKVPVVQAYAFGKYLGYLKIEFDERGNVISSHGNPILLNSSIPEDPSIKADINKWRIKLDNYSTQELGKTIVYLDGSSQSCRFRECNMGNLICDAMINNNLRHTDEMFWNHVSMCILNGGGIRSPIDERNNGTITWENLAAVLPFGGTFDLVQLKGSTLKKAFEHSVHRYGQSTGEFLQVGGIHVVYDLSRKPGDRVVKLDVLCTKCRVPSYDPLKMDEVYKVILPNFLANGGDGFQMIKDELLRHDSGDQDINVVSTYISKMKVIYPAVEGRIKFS
Protocol: Anti-CD73 antibodies are tested for their binding to each mutant by flow cytometry. A first experiment is performed to determine antibodies that lose their binding to one or several mutants at one concentration. To confirm a loss of binding, titration of antibodies is done on antibodies for which binding seemed to be affected by the CD73 mutations (1-0.1-0.01-0.001 μg/ml).

[1] = target: T2, recombinant human CD73-His extracellular domain protein, soluble dimer (human, UniProt P21589 27-547); assay: SPR (Biacore T100, 25 °C), antibody captured on Protein-A, soluble dimeric CD73 injected 1.23 to 300 nM, 1:1 kinetic model, bivalent affinity
T2 construct: also called huCD73 protein; human recombinant soluble dimeric CD73
T2 sequence: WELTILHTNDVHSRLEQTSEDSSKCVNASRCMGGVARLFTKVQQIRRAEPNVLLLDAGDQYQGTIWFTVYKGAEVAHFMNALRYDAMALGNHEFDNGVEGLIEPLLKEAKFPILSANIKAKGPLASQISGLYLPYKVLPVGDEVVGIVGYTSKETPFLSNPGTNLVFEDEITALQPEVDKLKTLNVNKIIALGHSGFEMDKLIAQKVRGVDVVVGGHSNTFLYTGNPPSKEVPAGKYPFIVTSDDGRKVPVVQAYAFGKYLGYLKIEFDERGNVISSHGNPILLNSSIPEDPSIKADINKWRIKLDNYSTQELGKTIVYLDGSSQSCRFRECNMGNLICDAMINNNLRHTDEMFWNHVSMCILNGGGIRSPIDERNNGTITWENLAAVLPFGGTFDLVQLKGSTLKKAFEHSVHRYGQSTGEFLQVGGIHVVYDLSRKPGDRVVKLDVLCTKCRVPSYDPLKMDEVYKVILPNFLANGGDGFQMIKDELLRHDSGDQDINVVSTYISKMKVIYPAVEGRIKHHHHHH
Protocol: SPR measurements were performed on a Biacore T100 apparatus (Biacore GE Healthcare) at 25° C. In all Biacore experiments HBS-EP+(Biacore GE Healthcare) and NaOH 10 mM served as running buffer and regeneration buffer respectively. Sensorgrams were analyzed with Biacore T100 Evaluation software. Protein-A was purchase from (GE Healthcare). Human soluble dimeric CD73 proteins were cloned, produced and purified at Innate Pharma.
Protein-A proteins were immobilized covalently to carboxyl groups in the dextran layer on a Sensor Chip CMS. The chip surface was activated with EDC/NHS (N-ethyl-N′-(3-dimethylaminopropyl) carbodiimide hydrochloride and N-hydroxysuccinimide (Biacore GE Healthcare). Protein-A was diluted to 10 μg/ml in coupling buffer (10 mM acetate, pH 5.6) and injected until the appropriate immobilization level was reached (i.e. 2000 RU). Deactivation of the remaining activated groups was performed using 100 mM ethanolamine pH 8 (Biacore GE Healthcare).
Affinity study was carried out according to a standard Capture-Kinetic protocol recommended by the manufacturer (Biacore GE Healthcare kinetic wizard). Serial dilutions of human recombinant soluble dimeric CD73 proteins, ranging from 1.23 to 300 nM were sequentially injected over the captured anti-CD73 antibodies and allowed to dissociate for 10 min before regeneration. […]

B1: antibody 7H10 (antibody, human IgG1, V domains shown)
VH: DVQLQESGPGLVKPSQSLSLTCTVTGYSITSDYAWNWIRQFPGNKLEWMGYIIYSGSTSYNPSLNSRISITRDTSKNQFFLQLNSVTTEDTATYYCAREAYLYFDYWGQGTTLTVSS
VL: DIQMTQTTSSLSASLGDRVTISCRASQDINNYLNWYQQKPDGTVKLLIYYTSRLHSGVPSRFSGSGSGTDYSLTISNLEREDVATYFCQQGNTLPWTFGGGTKLEIK
For B1, the binding result (human CD73 mutant 2) was “no binding (tested: 10 µg/ml)” and the Kd [1] was 0.527 nM.

— patent US20190225703A1 (INNATE PHARMA, published 2019)
